For experiment [1], the target named is recombinant TIMP-3 (human or mouse; Table 2 does not say which). The experiment can be described thus: binding ELISA, Assay 3. A general note: In an ELISA, binding on a coated surface is turned into a signal by an enzyme label.
For experiment [2] the target is unchanged. Nature of the experiment: binding ELISA, Assay 1.
For experiment [3] the target is unchanged. The experiment can be described thus: AlphaScreen, biotinylated TIMP-3, Assay 2. For orientation: Bead proximity is the source of the signal in Alpha formats.
The target is the same in experiment [4]. The experiment can be described thus: AlphaScreen, biotinylated TIMP-3, Assay 1.
Experiment [5] has the same target. The experiment can be described thus: binding ELISA, Assay 2.
Experiment [6] concerns the target recombinant mouse TIMP-3 (mouse) (UniProt P39876). Nature of the experiment: direct ELISA, coated muTIMP-3.
Experiment [7] concerns the target recombinant human TIMP-3 (human) (UniProt P35625). The experiment can be described thus: direct ELISA, coated huTIMP-3.
The target is the same in experiment [8]. The experiment can be described thus: cell-based or functional assay.
Experiment [9] addresses MMP-13 (UniProt P45452). The experiment can be described thus: cell-based or functional assay.
In experiment [10] the target is recombinant human TIMP-3 (human) (UniProt P35625). The experiment can be described thus: indirect ELISA, huTIMP-3 captured by anti-TIMP-3 clone 277128.
Sequence of recombinant human TIMP-3 (human) (P35625 24-211 limits assumed): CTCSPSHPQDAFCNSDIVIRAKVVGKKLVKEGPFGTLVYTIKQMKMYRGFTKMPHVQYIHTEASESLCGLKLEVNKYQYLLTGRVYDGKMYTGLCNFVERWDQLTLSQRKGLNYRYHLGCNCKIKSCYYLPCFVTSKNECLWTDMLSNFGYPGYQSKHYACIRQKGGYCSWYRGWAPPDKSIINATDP

This is an account of results in US20120231013A1.

Several values for one entry are separate records, joined by “and”; a condition that tells them apart may be missing. Equal values may be shown once.

The term EC50 denotes the midpoint of the concentration-response curve.

Sequence of recombinant TIMP-3 (human or mouse; Table 2 does not say which) (P35625 24-211): as the sequence (P35625 24-211 limits assumed) above
Sequence of LRP-1 Cluster II (C II) (peptide) (chain): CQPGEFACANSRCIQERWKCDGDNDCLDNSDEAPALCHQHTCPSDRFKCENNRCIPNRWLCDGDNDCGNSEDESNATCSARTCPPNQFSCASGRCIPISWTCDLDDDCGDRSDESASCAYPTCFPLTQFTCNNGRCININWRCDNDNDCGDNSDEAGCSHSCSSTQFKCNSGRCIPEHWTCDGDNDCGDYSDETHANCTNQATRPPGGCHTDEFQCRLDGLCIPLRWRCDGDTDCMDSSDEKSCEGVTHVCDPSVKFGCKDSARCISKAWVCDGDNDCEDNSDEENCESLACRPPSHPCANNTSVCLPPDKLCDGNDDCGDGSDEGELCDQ
Sequence of recombinant mouse TIMP-3 (mouse) (P39876 24-211 limits assumed): as the sequence (P35625 24-211 limits assumed) above, with T51S, D87E, Q103H, I183S counted along it
Sequence of LRP-1 peptide LA13-15 (chain): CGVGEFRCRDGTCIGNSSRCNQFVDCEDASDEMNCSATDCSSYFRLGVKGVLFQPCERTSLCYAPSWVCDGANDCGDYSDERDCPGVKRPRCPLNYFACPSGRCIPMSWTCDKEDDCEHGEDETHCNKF

As to LRP-1 Cluster II (C II) (peptide), the EC50 in experiment [1] is 32.5 nM; in experiment [2], 45.5 nM. The total signal (cps) in experiment [3] was found to be 100000 cps.

Regarding LRP-1 peptide LA3, the results for the total signal (cps) in experiment [4] and in [3] were 2200 cps and 2000 cps, respectively.

In the case of LRP-1 peptide LA4-5, the total signal (cps) in experiment [4] turned out to be 2200 cps; in [3], 2000 cps. Further, the EC50 in experiment [5] stood at 2000 nM.

For LRP-1 peptide LA5, the total signal (cps) in experiment [4] came out at 2200 cps; in experiment [3], 2000 cps. For the same substance, the EC50 in [5] worked out at 1080 nM.

Take LRP-1 peptide LA8: the EC50 in [6] was 255 nM. Also, the EC50 in experiment [7] was 292 nM. Further, the EC50 in experiment [1] was 396 nM. In experiment [8], the % of the inhibitory activity of TIMP-3 + peptide compared to TIMP-3 alone, 16 nM was determined as 101%; the % of the inhibitory activity of TIMP-3 + peptide compared to TIMP-3 alone, 80 nM turned out to be 71%; the % of the inhibitory activity of TIMP-3 + peptide compared to TIMP-3 alone, 400 nM came out at 74%; the % of the inhibitory activity of TIMP-3 + peptide compared to TIMP-3 alone, 2000 nM was determined as 107%. Besides, the Direct Inhibition of MMP13 (% decrease), 1000 nM in [9] amounted to 49%. Moreover, in experiment [10], the 50% effective concentration (EC50) turned out to be 198 nM. In addition, the total signal (cps) in experiment [3] turned out to be 2000 cps.

As to LRP-1 peptide LA8-9, the EC50 in experiment [6] was 173 nM. Further, the EC50 in [7] came out at 181 nM. Moreover, the EC50 in experiment [1] amounted to 249 nM. Also, in [8], the % of the inhibitory activity of TIMP-3 + peptide compared to TIMP-3 alone, 16 nM was found to be 95%; the % of the inhibitory activity of TIMP-3 + peptide compared to TIMP-3 alone, 80 nM is 91%; the % of the inhibitory activity of TIMP-3 + peptide compared to TIMP-3 alone, 400 nM was determined as 91%; the % of the inhibitory activity of TIMP-3 + peptide compared to TIMP-3 alone, 2000 nM was 97%. Further, the Direct Inhibition of MMP13 (% decrease), 1000 nM in [9] is 23%. Also, the EC50 in experiment [10] is 113 nM. The total signal (cps) in experiment [3] amounted to 6000 cps.

For the substance LRP-1 peptide LA9, in [1], the EC50 was found to be 1500 nM. Further, in [8], the % of the inhibitory activity of TIMP-3 + peptide compared to TIMP-3 alone, 16 nM stood at 104%; the % of the inhibitory activity of TIMP-3 + peptide compared to TIMP-3 alone, 80 nM is 104%; the % of the inhibitory activity of TIMP-3 + peptide compared to TIMP-3 alone, 400 nM worked out at 105%; the % of the inhibitory activity of TIMP-3 + peptide compared to TIMP-3 alone, 2000 nM was found to be 107%. In experiment [9], the Direct Inhibition of MMP13 (% decrease), 1000 nM was found to be 41%. For the same substance, the total signal (cps) in experiment [3] came out at 2000 cps.

LRP-1 peptide LA9-10: the EC50 in experiment [1] turned out to be 3000 nM. Besides, in [8], the % of the inhibitory activity of TIMP-3 + peptide compared to TIMP-3 alone, 16 nM turned out to be 105%; the % of the inhibitory activity of TIMP-3 + peptide compared to TIMP-3 alone, 80 nM was determined as 107%; the % of the inhibitory activity of TIMP-3 + peptide compared to TIMP-3 alone, 400 nM amounted to 105%; the % of the inhibitory activity of TIMP-3 + peptide compared to TIMP-3 alone, 2000 nM came out at 107%. Moreover, the Direct Inhibition of MMP13 (% decrease), 1000 nM in [9] stood at 34%. Moreover, the total signal (cps) in [3] came out at 2000 cps.

For LRP-1 peptide LA10, the Direct Inhibition of MMP13 (% decrease), 1000 nM in experiment [9] is 49%. For the same substance, the total signal (cps) in experiment [3] amounted to 3000 cps.

As for LRP-1 peptide LA11-13, the total signal (cps) in experiment [4] stood at 1200 cps. The Direct Inhibition of MMP13 (% decrease), 1000 nM in experiment [9] was -2%. In addition, the concentration for a half-maximal effect (EC50) in [2] is 5000 nM.

As to LRP-1 peptide LA13-15, the total signal (cps) in experiment [4] is 1200 cps.

For LRP-1 peptide LA16, in experiment [4], the total signal (cps) came to 2200 cps.

As to LRP-1 peptide LA18, the total signal (cps) in [4] turned out to be 2200 cps.

Regarding LRP-1 peptide LA18-20, the total signal (cps) in [4] was 3000 cps. In addition, the EC50 in [2] was 300 nM.

Take LRP-1 peptide LA19: in experiment [4], the total signal (cps) worked out at 2200 cps.

Regarding LRP-1 peptide LA21-23, in experiment [4], the total signal (cps) came out at 3000 cps. For the same substance, the EC50 in experiment [2] was 243 nM.

As to LRP-1 peptide LA21-31, the total signal (cps) in experiment [4] came out at 30000 cps. For the same substance, in [9], the Direct Inhibition of MMP13 (% decrease), 1000 nM worked out at 29%. Also, in experiment [2], the EC50 amounted to 92 nM.

Regarding LRP-1 peptide LA23, the total signal (cps) in experiment [4] stood at 2200 cps.

Take LRP-1 peptide LA26-28: the figures for the total signal (cps) in experiment [4] and in experiment [3] were 6500 cps and 9000 cps, respectively. The EC50 in experiment [2] is 268 nM.

In the case of LRP-1 peptide LA27, the total signal (cps) in experiment [4] came to 2200 cps.

Regarding LRP-1 peptide LA29-31, the total signal (cps) in [4] amounted to 1200 cps. Also, in experiment [8], the % of the inhibitory activity of TIMP-3 + peptide compared to TIMP-3 alone, 16 nM was determined as 96%; the % of the inhibitory activity of TIMP-3 + peptide compared to TIMP-3 alone, 80 nM was 99%; the % of the inhibitory activity of TIMP-3 + peptide compared to TIMP-3 alone, 400 nM stood at 97%; the % of the inhibitory activity of TIMP-3 + peptide compared to TIMP-3 alone, 2000 nM was 96%. Moreover, the Direct Inhibition of MMP13 (% decrease), 1000 nM in [9] came to 5%. In experiment [2], the EC50 is 1000 nM and 300 nM.
